{
  "source": "the supplement of paper PMC9112550",
  "about": "“Optimization of the antimicrobial peptide Bac7 by deep mutational scanning” (BMC Biology, 2022);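 note: peptides expressed intracellularly from a pBAD plasmid library in pooled LB shake-flask culture, induced with 0.3% L-arabinose, DNA abundance read by NGS, three biological replicates, DESeq2 with apeglm shrinkage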",
  "data": [
    {"system": "Escherichia coli TOP10", "experiment": "shrunken log2 fold change of peptide-encoding DNA abundance (4.5 h post-induction vs induction); higher = less antimicrobial activity (less host growth inhibition)", "conditions": "time post-induction: 4.5 h; library: site-saturation at positions 5, 18, 19, 20", "values": [
      {"sequence": "RRIRGRPPRLPRPRPRPQWYPRP", "shrunken log2 fold change": 0.25},
      {"sequence": "RRIRWRPPRLPRPRPRPCYLPRP", "shrunken log2 fold change": -0.33},
      {"sequence": "RRIRWRPPRLPRPRPRPSRGPRP", "shrunken log2 fold change": 0.532},
      {"sequence": "RRIRCRPPRLPRPRPRPFSSPRP", "shrunken log2 fold change": -0.24},
      {"sequence": "RRIRTRPPRLPRPRPRPDVWPRP", "shrunken log2 fold change": 0.33},
      {"sequence": "RRIRSRPPRLPRPRPRPFSIPRP", "shrunken log2 fold change": -0.379},
      {"sequence": "RRIRKRPPRLPRPRPRPYFLPRP", "shrunken log2 fold change": -0.278},
      {"sequence": "RRIRKRPPRLPRPRPRPNHNPRP", "shrunken log2 fold change": -0.382},
      {"sequence": "RRIRVRPPRLPRPRPRPQHNPRP", "shrunken log2 fold change": -0.604},
      {"sequence": "RRIRVRPPRLPRPRPRPDHWPRP", "shrunken log2 fold change": 0.152},
      {"sequence": "RRIRERPPRLPRPRPRPHQRPRP", "shrunken log2 fold change": 0.0138},
      {"sequence": "RRIRMRPPRLPRPRPRPKMQPRP", "shrunken log2 fold change": 0.995},
      {"sequence": "RRIRKRPPRLPRPRPRPRIWPRP", "shrunken log2 fold change": 0.434},
      {"sequence": "RRIRERPPRLPRPRPRPCFYPRP", "shrunken log2 fold change": -0.43},
      {"sequence": "RRIRPRPPRLPRPRPRPSMQPRP", "shrunken log2 fold change": -0.29},
      {"sequence": "RRIRARPPRLPRPRPRPDRGPRP", "shrunken log2 fold change": -0.283},
      {"sequence": "RRIRPRPPRLPRPRPRPGWYPRP", "shrunken log2 fold change": 0.075},
      {"sequence": "RRIRVRPPRLPRPRPRPIEEPRP", "shrunken log2 fold change": -0.181},
      {"sequence": "RRIRIRPPRLPRPRPRPAFWPRP", "shrunken log2 fold change": 0.15},
      {"sequence": "RRIRNRPPRLPRPRPRPYVEPRP", "shrunken log2 fold change": -0.00677},
      {"sequence": "RRIRIRPPRLPRPRPRPYGNPRP", "shrunken log2 fold change": -1.18},
      {"sequence": "RRIRRRPPRLPRPRPRPDESPRP", "shrunken log2 fold change": 0.037},
      {"sequence": "RRIRHRPPRLPRPRPRPPEVPRP", "shrunken log2 fold change": 0.0634},
      {"sequence": "RRIRHRPPRLPRPRPRPGMKPRP", "shrunken log2 fold change": -0.113},
      {"sequence": "RRIRHRPPRLPRPRPRPEEEPRP", "shrunken log2 fold change": -0.0106},
      {"sequence": "RRIRTRPPRLPRPRPRPCCFPRP", "shrunken log2 fold change": -0.114},
      {"sequence": "RRIRQRPPRLPRPRPRPNTKPRP", "shrunken log2 fold change": -0.199},
      {"sequence": "RRIRIRPPRLPRPRPRPFAYPRP", "shrunken log2 fold change": -0.396},
      {"sequence": "RRIRGRPPRLPRPRPRPVKMPRP", "shrunken log2 fold change": 0.127},
      {"sequence": "RRIRIRPPRLPRPRPRPNNFPRP", "shrunken log2 fold change": -0.388},
      {"sequence": "RRIRDRPPRLPRPRPRPSIMPRP", "shrunken log2 fold change": -0.0808},
      {"sequence": "RRIRNRPPRLPRPRPRPLPIPRP", "shrunken log2 fold change": -0.299},
      {"sequence": "RRIRIRPPRLPRPRPRPGSWPRP", "shrunken log2 fold change": 0.227},
      {"sequence": "RRIRKRPPRLPRPRPRPSYGPRP", "shrunken log2 fold change": -0.141},
      {"sequence": "RRIRGRPPRLPRPRPRPIRHPRP", "shrunken log2 fold change": 0.0519},
      {"sequence": "RRIRARPPRLPRPRPRPFLEPRP", "shrunken log2 fold change": -0.219},
      {"sequence": "RRIRFRPPRLPRPRPRPQFCPRP", "shrunken log2 fold change": -0.0625},
      {"sequence": "RRIRFRPPRLPRPRPRPESSPRP", "shrunken log2 fold change": 0.113},
      {"sequence": "RRIRVRPPRLPRPRPRPEQEPRP", "shrunken log2 fold change": -0.0189},
      {"sequence": "RRIRARPPRLPRPRPRPKTEPRP", "shrunken log2 fold change": 0.38},
      {"sequence": "RRIRARPPRLPRPRPRPRVGPRP", "shrunken log2 fold change": 0.352},
      {"sequence": "RRIRIRPPRLPRPRPRPSHTPRP", "shrunken log2 fold change": -0.595},
      {"sequence": "RRIRHRPPRLPRPRPRPAFYPRP", "shrunken log2 fold change": -0.332},
      {"sequence": "RRIRQRPPRLPRPRPRPSYCPRP", "shrunken log2 fold change": 0.103},
      {"sequence": "RRIRARPPRLPRPRPRPSVPPRP", "shrunken log2 fold change": -0.179},
      {"sequence": "RRIRRRPPRLPRPRPRPWPSPRP", "shrunken log2 fold change": 0.0392},
      {"sequence": "RRIRRRPPRLPRPRPRPCAGPRP", "shrunken log2 fold change": 0.357},
      {"sequence": "RRIRARPPRLPRPRPRPFCGPRP", "shrunken log2 fold change": -0.0184},
      {"sequence": "RRIRTRPPRLPRPRPRPTINPRP", "shrunken log2 fold change": -0.565},
      {"sequence": "RRIRWRPPRLPRPRPRPPKMPRP", "shrunken log2 fold change": 0.172},
      {"sequence": "RRIRMRPPRLPRPRPRPWLSPRP", "shrunken log2 fold change": 0.0302},
      {"sequence": "RRIRCRPPRLPRPRPRPHQEPRP", "shrunken log2 fold change": -0.0176},
      {"sequence": "RRIRGRPPRLPRPRPRPENGPRP", "shrunken log2 fold change": 0.223},
      {"sequence": "RRIRRRPPRLPRPRPRPQFEPRP", "shrunken log2 fold change": 0.16},
      {"sequence": "RRIRCRPPRLPRPRPRPPTMPRP", "shrunken log2 fold change": 0.143},
      {"sequence": "RRIRTRPPRLPRPRPRPLRVPRP", "shrunken log2 fold change": 0.767},
      {"sequence": "RRIRHRPPRLPRPRPRPVYMPRP", "shrunken log2 fold change": -0.2},
      {"sequence": "RRIRHRPPRLPRPRPRPYFHPRP", "shrunken log2 fold change": -0.955},
      {"sequence": "RRIRARPPRLPRPRPRPVPPPRP", "shrunken log2 fold change": 1.05},
      {"sequence": "RRIRDRPPRLPRPRPRPWWNPRP", "shrunken log2 fold change": -0.0921},
      {"sequence": "RRIRCRPPRLPRPRPRPMGQPRP", "shrunken log2 fold change": 0.00321},
      {"sequence": "RRIRHRPPRLPRPRPRPAAWPRP", "shrunken log2 fold change": 0.465},
      {"sequence": "RRIRTRPPRLPRPRPRPYPIPRP", "shrunken log2 fold change": 0.00205},
      {"sequence": "RRIRKRPPRLPRPRPRPQHKPRP", "shrunken log2 fold change": 0.196},
      {"sequence": "RRIRWRPPRLPRPRPRPGYMPRP", "shrunken log2 fold change": -0.288},
      {"sequence": "RRIRNRPPRLPRPRPRPSEKPRP", "shrunken log2 fold change": -0.0315},
      {"sequence": "RRIRFRPPRLPRPRPRPNGCPRP", "shrunken log2 fold change": -0.0256},
      {"sequence": "RRIRLRPPRLPRPRPRPCADPRP", "shrunken log2 fold change": 0.151},
      {"sequence": "RRIRERPPRLPRPRPRPYWEPRP", "shrunken log2 fold change": -0.219},
      {"sequence": "RRIRRRPPRLPRPRPRPTMVPRP", "shrunken log2 fold change": 0.283},
      {"sequence": "RRIRERPPRLPRPRPRPAACPRP", "shrunken log2 fold change": 0.0165},
      {"sequence": "RRIRTRPPRLPRPRPRPDAMPRP", "shrunken log2 fold change": 0.248},
      {"sequence": "RRIRQRPPRLPRPRPRPGWYPRP", "shrunken log2 fold change": 0.126},
      {"sequence": "RRIRYRPPRLPRPRPRPYYFPRP", "shrunken log2 fold change": -2.19},
      {"sequence": "RRIRIRPPRLPRPRPRPGLPPRP", "shrunken log2 fold change": 0.209}
    ]}
  ]
}
